These results are taken from US20210388105A1 (ELPISCIENCE SUZHOU BIOPHARMA, published 2021).

Substitutions are numbered along the chain they refer to.

The target of assay [1] is T1, cynomolgus CD39 (full length, on CHOK1-cynoCD39 cells) (cynomolgus monkey, UniProt A0A7N9DGH8 1-510).
T1 construct: whole, on cells; also called cCD39
T1 sequence: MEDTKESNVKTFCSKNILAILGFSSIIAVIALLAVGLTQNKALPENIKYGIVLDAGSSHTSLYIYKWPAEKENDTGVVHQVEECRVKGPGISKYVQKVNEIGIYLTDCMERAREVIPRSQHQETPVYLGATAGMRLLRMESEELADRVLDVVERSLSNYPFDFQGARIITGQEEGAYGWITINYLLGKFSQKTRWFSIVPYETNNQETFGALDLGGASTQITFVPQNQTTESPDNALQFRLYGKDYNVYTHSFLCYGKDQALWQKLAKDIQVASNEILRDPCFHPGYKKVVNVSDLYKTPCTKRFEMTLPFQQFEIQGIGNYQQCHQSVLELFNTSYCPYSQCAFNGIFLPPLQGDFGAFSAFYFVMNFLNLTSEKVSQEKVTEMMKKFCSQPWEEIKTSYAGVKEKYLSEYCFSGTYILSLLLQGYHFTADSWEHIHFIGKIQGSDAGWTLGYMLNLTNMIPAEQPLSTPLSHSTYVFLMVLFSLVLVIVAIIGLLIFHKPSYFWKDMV
Nature of the assay: FACS, CHOK1-cynoCD39 cells. As to the method: CHOK1-hCD39, CHOK1-cCD39, CHOK1-mCD39 and CHOK1-blank cells were maintained in culture medium according to ATCC procedure. Cells were collected and re-suspended in blocking buffer at a density of 3×10⁶ cells/ml. Cells were transferred to 96 well FACS plates at 100 μl/well (3×10⁵ cells/well), the plates were centrifuged and washed twice with FACS buffer (PBS, 1% FBS, 0.05% Tween-20). 4-folds serial dilution of anti-CD39 antibodies were prepared in FACS buffer starting from 30 μg/ml. Reference antibody 9-8B and mouse/human control IgG were used as positive and negative controls, respectively. Cells were re-suspended in 100 μL/well diluted antibodies, and the plates were incubated at 4° C. for 60 min. […] The plates were washed with FACS buffer, and cells were re-suspended in 100 μL/well of PBS. Cells were then analyzed with FACSVerse™ and mean fluorescence intensity were determined. Full binding curves were generated on the CD39 expressing cells by testing a range of antibody concentrations. Apparent affinity was determined for each antibody using Prism software. […]
Reference antibodies T895 and 1394 were tested in parallel as control antibodies. […] Maximum signal (mean fluorescence intensity, MFI) differed between cells for each antibody may result from their different expression level.
In general terms: A flow cytometer gives signals particle by particle.

For assay [2], the target named is T2, human CD39 (full length, on cells) (human, UniProt P49961 1-510).
T2 construct: Recombinant on CHOK1-hCD39 cells or natural on SK-MEL-28, SK-MEL-5 and MOLP-8 cells; the cell line is named under assay; also called hCD39; ENTPD1
T2 sequence: T1 sequence with I47V, Y94F, I221V, T230I, V329I, N368K, S391A, V489F, I490T
In words: FACS competition on CHOK1-hCD39; competitor mAb23-Alexa488. As to the method:
(§1) Anti-CD39 antibodies were labeled using Alex488 labeling kit and were diluted in a series of concentrations, before mixing with CHOK1-hCD39 cells to test binding EC₅₀using FACS. The non-labeled antibodies were tested for their blocking efficacy to the labelled ones. Briefly, mononuclear CHOK1-hCD39 cells were prepared to 2×10⁶/ml and plated into 96 well at 50 μl/well, then mixed with antibodies gradients to final volume at 100 μl, and then equal volume of Alex488 label antibodies were added at two folds EC80 concentration. 96 well plates were incubated at 4° C. for 1 hour, and spun down and washed 3 times with 200 μl FACS buffer. The FACS analysis was performed on FACScelesta machine and data was analyzed by Flowjo software. The blocking percentages were calculated and those having above 80% competition rate were allocated into one epitope group, compared with the non-competing well (Alex488 labeled antibody only).
(§2) Based on the competition results, the 4 anti-CD39 hybridoma antibodies (mAb14, mAb19, mAb21, mAb23) can be grouped into 4 different epitope groups, as shown in Table 11.

Assay [3] concerns the target T2, human CD39 (full length, on cells). Nature of the assay: FACS competition on CHOK1-hCD39; competitor 9-8B-Alexa488. As to the method:
as §1, §2

Assay [4] has the same target. In words: FACS competition on CHOK1-hCD39; competitor mAb14-Alexa488. As to the method: as §1, §2

B1: Antibody T895 (antibody, V domains shown)
VH: EVQLQQSGPELVKPGASVKMSCKASGYTFTDYNMHWVKQSHGRTLEWIGYIVPLNGGSTFNQKFKGRATLTVNTSSRTAYMELRSLTSEDSAAYYCARGGTRFAYWGQGTLVTVSA
VL: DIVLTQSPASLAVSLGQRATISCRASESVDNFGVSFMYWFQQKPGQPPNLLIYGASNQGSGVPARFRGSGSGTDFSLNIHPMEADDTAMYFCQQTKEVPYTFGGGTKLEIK
notes: also called 31895
The EC50 is the concentration that produces a half-maximal response. The low end stands for an effect from little substance, the high end for a need for much substance. Take B1: the 50% effective concentration (EC50) in assay [1] came to 4.19 nM.

B2: Antibody 9-8B (antibody, V domains shown)
VH: QIQLVQSGPELKKPGETVKISCKASGYTFTHYGMNWVKQAPGKGLKWMGWINTYTGELTYADDFKGRFAFSLETSASTAYLQINNLKNEDTATYFCARRAYYRYDYVMDYWGQGTSVTVSS
VL: DIVMTQSQKFMSTSVGDRVSVTCKASHNVGTNVAWYQQKPGQSPKALIYSASYRYSGVPGRFTGSGSGTDFTLTISNVQSEDLAEYFCHQYNNYPYTFGGGTKLEIK
For B2, the blocking percentage in assay [2] was 100%; in assay [3], 98%; in assay [4], 55%.

B3: hu23.H5L5 (antibody, V domains shown)
VH: QVQLVQSGAEVKKPGASVKVSCKASGYNLKDTFLHWVRQAPGQGLEWMGRIDPANGNIKYDPKFQGRVTITADTSANTAYMELISLRSEDTAVYYCANSPYYYGSGYRIFDVWGQGTTVTVSS
VL: QIVLTQSPATLSLSPGERATLSCSAFSSVNYMHWYQQKPGQAPRLLIYTTSNLASGIPTRFSGSGSGTSYTLTISSLEPEDFAVYYCQQRSTYPFTFGQGTKLEIK
notes: humanized c23
Molecule B3 had an EC50 in assay [1] of 3.38 nM.

B4: mAb14 (antibody, V domains shown)
VH: EVKLEESGGGLVQPGGSMKLSCVASGFTFSKYWMNWVRQSPEKGLEWVAEIRLKSNKYGTHYAESVKGRFTISRDDSKNNVYLQMNNLRPEDTGIYYCTTQLDLYWFFDVWGAGTTVTVSS
VL: DIVMTQSPAILSVTPGDRVSLSCRASQSISDYLHWYQQKSHESPRLLIKYASQSISGIPSRFSGSGSGSNFTLSINSVEPEDVGVYFCQNGHSLPLTFGAGTKLELR
notes: mouse hybridoma antibody
Consider B4, for which the blocking percentage in assay [2] is -26%; in assay [3], -11%; in assay [4], 98%.
